Biological target: T1, human FSH (follicle stimulating hormone) (human, UniProt P01215 25-116; P01225 19-129)
T1 construct: also called purified human FSH; human FSH in PDB ID 4AY9
Assay: thermal shift assay (Sypro-Orange), antibody 1.5 µg/µL with or without human FSH 0.5 µg/µL
Procedure: Next, 215 different anti-FSH antibody formulations comprising different combinations of salt, detergent and sugars were tested for thermal stability. The thermal shift assay used a fluorescent reporter, Sypro-Orange (Protein Thermal Shift Dye Kit, ThermoFisher, Catalog #4461146), to detect hydrophobic domains that are exposed following the heat-induced unfolding of globular proteins. anti-FSH antibodies (1.5 μg/μL), either in a test formulation or in PBS, were incubated with or without human FSH (0.5 μg/μL) at room temperature for 30 minutes, with fluorescence captured sequentially at 0.3° C. increments using a StepOne Plus Thermocycler (Applied Biosystems). Tm was calculated based on the inflection point of the melt curve, and thermal shift was derived from ΔTₘ=TₘA−TₘB.
This testing yielded an anti-FSH antibody formulation comprising a stock solution of 2 mg/mL in 20 mM phosphate, 0.001% (v/v) Tween-20, 1 mM NaCl, and 260 mM sucrose (pH=6.58). […] The binding of formulated anti-FSH antibodies to purified human FSH was tested. A ΔTₘ of 3.1° C. of the Fab, and not the Fc region, established greater thermal stability due to FSH binding (FIG. 8C).

T1 sequence (P01215 25-116, chain 1 of 2): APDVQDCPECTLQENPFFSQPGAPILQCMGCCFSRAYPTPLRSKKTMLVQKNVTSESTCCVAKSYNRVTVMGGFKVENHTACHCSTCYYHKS
T1 sequence (P01225 19-129, chain 2 of 2): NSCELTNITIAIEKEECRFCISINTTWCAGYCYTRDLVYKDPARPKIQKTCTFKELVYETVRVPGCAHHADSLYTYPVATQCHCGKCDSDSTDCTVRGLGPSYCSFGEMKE

B1: humanized monoclonal anti-FSH antibody Hu6 (antibody, V domains shown)
VH: QVQLQESGPGLVKPSQTLSLTCTVSGFSITSDYAWNWIRQPPGKGLEWIGSIFSSGSINYNPSLKSRVTISRDTSKNQFSLKLSSVTAADTAVYYCARGGTGTDYWGQGTLVTVSS
VL: DIQMTQSPSSLSASVGDRVTITCRASQDISNYLSWYQQKPGKAIKLLIYYTSRLHSGVPSRFSGSGSGTDYTLTISSLQPEDFATYFCQQGHTLPPTFGGGTKVEIK
notes: also called MS-Hu6; formulated anti-FSH antibodies
With B1 the “ΔTm of the Fab region on FSH binding” value was 3.1 °C.
